# Assay results: publication PMC10282093, “Structural basis of α1A-adrenergic receptor activation and recognition by an extracellular nanobody” (Nature Communications, 2023)
# “And” between values parts separate entries of the source, which are not always exact repeats. Identical values can stand only once.
# B1: Nb29 displayed on yeast cells (VHH)
# VHH: QVQLQESGGGLVQAGGSLRLSCAASGNISAHWKMGWYRQAPGKEREFVAGIGYANTNYADSVKGRFTISRDNAKNTVYLQMNSLKPEDTAVYYCAAYSYYRDHSYWGQGTQVTVSS
# notes: Expression was detected with an anti-HA antibody; also called Nb29-expressing yeast cells
# B2: Nb29: synthetic nanobody (single domain antibody) that binds the extracellular vestibule of α1AAR, preferentially oxymetazoline-bound (antibody, V domains shown)
# VH: QVQLQESGGGLVQAGGSLRLSCAASGNISAHWKMGWYRQAPGKEREFVAGIGYANTNYADSVKGRFTISRDNAKNTVYLQMNSLKPEDTAVYYCAAYSYYRDHSYWGQGTQVTVSS
# Experiments:
# [1] = target: T1, purified α1AAR fused at the C-terminus to an enhanced green fluorescent protein (Homo sapiens, UniProt P35348, N7Q | N13Q | N22Q); assay: flow cytometry on cells; on-yeast titration as a1, in the presence of 500 μM noradrenaline; details: one partner purified
# T1 construct: α1A-adrenergic receptor, human; Used in the on-yeast titration with or without 500 μM ligand (oxymetazoline, noradrenaline, tamsulosin, phentolamine); not shown: EGFP, C-terminal, kept
# [2] = target: T1, purified α1AAR fused at the C-terminus …; assay: flow cytometry on cells; on-yeast titration as a1, in the presence of 500 μM oxymetazoline; details: one partner purified
# [3] = target: T2, α1AAR (Homo sapiens, UniProt P35348); assay: [3H]prazosin radioligand binding, Sf9 membranes
# T2 sequence (P35348 1-370): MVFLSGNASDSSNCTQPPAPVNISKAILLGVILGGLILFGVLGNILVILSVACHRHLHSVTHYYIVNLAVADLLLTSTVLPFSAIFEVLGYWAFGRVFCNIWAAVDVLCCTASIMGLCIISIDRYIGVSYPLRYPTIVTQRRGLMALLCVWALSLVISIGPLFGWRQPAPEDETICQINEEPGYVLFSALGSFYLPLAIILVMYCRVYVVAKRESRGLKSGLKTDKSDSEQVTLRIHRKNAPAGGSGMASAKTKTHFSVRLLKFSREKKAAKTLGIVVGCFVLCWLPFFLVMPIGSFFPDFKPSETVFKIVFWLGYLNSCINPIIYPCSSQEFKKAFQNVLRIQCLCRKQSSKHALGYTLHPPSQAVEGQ
# Description: After centrifugation, the pellet was homogenized in binding buffer and used as the membrane fraction in binding assays. […] Receptors were incubated for 1 h at room temperature with various concentrations of ligand in a total volume of 100 µl. After the reaction, the mixture was trapped on Whatman GF/B glass filters. Bound and free radioligands were separated by washing with ice-cold binding buffer. Radioactivity was measured on a MicroBeta2 liquid scintillation counter (PerkinElmer).
# [4] = target: T3, α1AAR (Homo sapiens, UniProt P35348)
# T3 sequence (P35348 1-466): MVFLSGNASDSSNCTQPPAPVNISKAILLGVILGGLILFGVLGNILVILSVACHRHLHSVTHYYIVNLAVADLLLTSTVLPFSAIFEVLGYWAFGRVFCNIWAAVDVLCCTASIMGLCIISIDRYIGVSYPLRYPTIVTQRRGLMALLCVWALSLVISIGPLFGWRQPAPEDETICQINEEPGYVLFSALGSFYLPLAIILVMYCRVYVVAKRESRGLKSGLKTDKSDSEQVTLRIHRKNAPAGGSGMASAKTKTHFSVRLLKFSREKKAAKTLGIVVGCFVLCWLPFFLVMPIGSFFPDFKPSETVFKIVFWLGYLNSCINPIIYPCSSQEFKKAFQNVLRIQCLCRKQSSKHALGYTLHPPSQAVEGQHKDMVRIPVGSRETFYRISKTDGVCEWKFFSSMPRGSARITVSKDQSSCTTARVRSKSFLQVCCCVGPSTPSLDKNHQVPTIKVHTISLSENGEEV
# [5] = target: T3, α1AAR; assay: Glo-sensor cAMP signaling assay with engineered Gsq protein in HEK293T cells
# Description: In brief, pGloSensor™−22F plasmid, receptor plasmid, and Gsq plasmid were transfected into HEK293T cells. At 24 h after transfection, the cells were switched into a CO2-Independent Medium (Gibco) and incubated with GloSensor^TM cAMP reagent. The mixture was then transferred to a 96-well white plate. The 96-well plate is placed at 37 °C in the dark for 1 h, then placed at room temperature in the dark for 1 h before use. […] The result curves were calculated and fitted by GraphPad Prism 9.
molecule,measurement,setting,value
B1,Kd,[1],38.8 nM
same,Kd,[2],37.6 nM
B2,[3H]prazosin binding,[3]; Nb29 Log[M] -4,69.5661% and 61.694% and 66.6796%
same,[3H]prazosin binding,[3]; Nb29 Log[M] -5,88.6049% and 105.399% and 83.0653%
same,[3H]prazosin binding,[3]; Nb29 Log[M] -6,111.871% and 107.935%
same,[3H]prazosin binding,[3]; Nb29 Log[M] -7,113.212% and 110.763% and 99.0136%
same,[3H]prazosin binding,[3]; Nb29 Log[M] -8,94.5235% and 106.273% and 100.209%
same,[3H]prazosin binding,[3]; Nb29 Log[M] -9,103.737% and 106.273%
same,[3H]prazosin binding,[3]; Nb29 Log[M] -10,99.4509% and 97.7015% and 89.1005%
same,pKi,[3]; Nb29 as competitor,4.39 ± 0.40
same,Ki,[4],4900 nM
same,agonist activity on its own,[5],no agonist activity
same,effect on maximum efficacy of α1AAR activation,[5],slightly reduces
same,α1AAR activation (Noradrenaline %),[5]; Nb29 alone Log[M] -4,8.574% and 8.426% and 7.756%
same,α1AAR activation (Noradrenaline %),[5]; Nb29 alone Log[M] -5,10.7076% and 10.0868% and 10.3298%
same,α1AAR activation (Noradrenaline %),[5]; Nb29 alone Log[M] -6,8.0538% and 8.0467% and 7.523%
same,α1AAR activation (Noradrenaline %),[5]; Nb29 alone Log[M] -7,5.836% and 5.21% and 5.469%
same,α1AAR activation (Noradrenaline %),[5]; Nb29 alone Log[M] -8,4.832% and 4.868% and 5.077%
same,α1AAR activation (Noradrenaline %),[5]; Nb29 alone Log[M] -9,4.7489% and 4.768% and 4.504%
same,α1AAR activation (Noradrenaline %),[5]; Nb29 alone Log[M] -10,4.612% and 4.823% and 4.852%
same,α1AAR activation (Noradrenaline %),[5]; Nb29 alone Log[M] -11,4.776% and 4.958% and 4.729%
